Assay results published in publication PMC7773337 (2020).

B1: zz-LAP1B(98-136)-2E His6 (S108E, T124E) (domain or fragment)
chain: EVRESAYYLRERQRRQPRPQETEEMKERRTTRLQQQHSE
B2: zz-LAP1B(98-136)-His6 wild-type (domain or fragment)
chain: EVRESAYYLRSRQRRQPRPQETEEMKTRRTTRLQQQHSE

Biological target: reconstituted mononucleosomes (histone octamer on Widom '601' DNA)

Binder | Kd
B1 | 9.13 µM
B2 | 0.43 µM
